Measurements taken from patent US20210163584A1 (Sanofi, published 2021).
Read-outs that look alike come from different tables or passages of the source.

Columns and labels:
TGF-β1 [1] = molecular target: T1, TGF-β1 (UniProt P01137 279-390); test: cell-based or functional assay
TGF-β1 [2] = molecular target: T1, TGF-β1; test: SPR (Biacore); amine-coupled TGF-β1 on chip, antibody as analyte, kinetic fit
From the text: Recombinant mAb1-D10 fusion variants of Example 7 were also quantitatively assessed for TGF-β1 binding using surface plasmon resonance (SPR) as detected by Biacore. Samples containing purified variants were passed over a sensor chip with amine-coupled TGF-β1 to determine the equilibrium constant, KD. A target immobilization level of less than 100 response units (RU) of TGF-β1 was chosen to minimize the potential for avidity effects arising from binding adjacent TGF-β1 molecules on the chip. The level of immobilization was determined by the change in response units after NHS/EDC activation of the chip surface, but before quenching with ethanolamine. The fusion variants, WT fusion variant F1, and mAb1 control were diluted to 30, 10, 3, 1 and 0.37 nM in HBS-EP buffer and passed over the TGF-β1 chip at 30 μL/min for 3 min, followed by 5 min dissociation in the same buffer. Between runs, the chip surface was regenerated to remove any bound antibody by passing two 30 sec injections of 40 mM HCl over the chip at a flow rate of 75 μL/min. […] Unexpectedly, the maximum signal (RU) elicited by the fusion variants decreased with increasing number of peptides, with variant F17 (D10-HC-D10/D10-LC, PAR=6) showing the lowest signal. […] A possible explanation of this decline may reflect electrostatic repulsion between the chip matrix (carboxymethyl dextran) and the negatively charged D10 peptides.

TGF-β1 [3] = molecular target: T1, TGF-β1; test: cell-based or functional assay; remark: listed apart in the source

T1 sequence (P01137 279-390 limits assumed): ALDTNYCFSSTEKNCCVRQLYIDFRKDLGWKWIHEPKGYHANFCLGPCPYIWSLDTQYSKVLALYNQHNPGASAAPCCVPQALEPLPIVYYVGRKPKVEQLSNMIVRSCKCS

Binder | IC50 (read off the curve); IL-11 release by A549 cells in response to TGF-β1 (TGF-β1 [1]) | Kd (TGF-β1 [2]) | koff (TGF-β1 [2]) | kon (TGF-β1 [2]) | IC50 (read off the curve); IL-11 release by A549 cells in response to TGF-β1 (TGF-β1 [3])
mAb1 F7 (antibody, mouse IgG1, kappa, Mouse IgG1 fusion variant, PAR 4; also called HC-D10: D10-LC) heavy: HVQLQQSGPELVRPGASVKLSCKASGYIFITYWMNWVKQRPGQGLEWIGQIFPASGSTNYNEMFEGKATLTVDTSSSTAYMQLSSLTSEDSAVYYCARGDGNYALDAMDYWGQGTSVTVSSAKTTPPSVYPLAPGSAAQTNSMVTLGCLVKGYFPEPVTVTWNSGSLSSGVHTFPAVLQSDLYTLSSSVTVPSSTWPSQTVTCNVAHPASSTKVDKKIVPRDCGCKPCICTVPEVSSVFIFPPKPKDVLTITLTPKVTCVVVDISKDDPEVQFSWFVDDVEVHTAQTKPREEQFNSTFRSVSELPIMHQDWLNGKEFKCRVNSAAFPAPIEKTISKTKGRPKAPQVYTIPPPKEQMAKDKVSLTCMITDFFPEDITVEWQWNGQPAENYKNTQPIMDTDGSYFVYSKLNVQKSNWEAGNTFTCSVLHEGLHNHHTEKSLSHSPGKDDDDDDDDDD light: DDDDDDDDDDNIVLTQSPASLAVSLGQRATISCRASESVDSYGNSFMHWYQQKSGQPPKLLIYLASNLESGVPARFSGSGSRTDFTLTIDPVEADDAATYYCQQNNEDPLTFGAGTKLELKRADAAPTVSIFPPSSEQLTSGGASVVCFLNNFYPKDINVKWKIDGSERQNGVLNSWTDQDSKDSTYSMSSTLTLTKDEYERHNSYTCEATHKTSTSPIVKSFNRNEC | ~0.08 nM | 5.43 nM | 0.00094 s⁻¹ | 172000 M⁻¹ s⁻¹ | –
mAb1 F1 (antibody, mouse IgG1, kappa, Recombinant version of mAb1 without D10 peptide, mouse IgG1, PAR 0; also called Fusion 1; WT) heavy: HVQLQQSGPELVRPGASVKLSCKASGYIFITYWMNWVKQRPGQGLEWIGQIFPASGSTNYNEMFEGKATLTVDTSSSTAYMQLSSLTSEDSAVYYCARGDGNYALDAMDYWGQGTSVTVSSAKTTPPSVYPLAPGSAAQTNSMVTLGCLVKGYFPEPVTVTWNSGSLSSGVHTFPAVLQSDLYTLSSSVTVPSSTWPSQTVTCNVAHPASSTKVDKKIVPRDCGCKPCICTVPEVSSVFIFPPKPKDVLTITLTPKVTCVVVDISKDDPEVQFSWFVDDVEVHTAQTKPREEQFNSTFRSVSELPIMHQDWLNGKEFKCRVNSAAFPAPIEKTISKTKGRPKAPQVYTIPPPKEQMAKDKVSLTCMITDFFPEDITVEWQWNGQPAENYKNTQPIMDTDGSYFVYSKLNVQKSNWEAGNTFTCSVLHEGLHNHHTEKSLSHSPGK light: NIVLTQSPASLAVSLGQRATISCRASESVDSYGNSFMHWYQQKSGQPPKLLIYLASNLESGVPARFSGSGSRTDFTLTIDPVEADDAATYYCQQNNEDPLTFGAGTKLELKRADAAPTVSIFPPSSEQLTSGGASVVCFLNNFYPKDINVKWKIDGSERQNGVLNSWTDQDSKDSTYSMSSTLTLTKDEYERHNSYTCEATHKTSTSPIVKSFNRNEC | ~0.2 nM | 2.51 nM | 0.00085 s⁻¹ | 338000 M⁻¹ s⁻¹ | –
mAb1 F2 (antibody, mouse IgG1, kappa, Mouse IgG1 fusion variant, PAR 2; also called WT-HC: D10-LC) heavy: HVQLQQSGPELVRPGASVKLSCKASGYIFITYWMNWVKQRPGQGLEWIGQIFPASGSTNYNEMFEGKATLTVDTSSSTAYMQLSSLTSEDSAVYYCARGDGNYALDAMDYWGQGTSVTVSSAKTTPPSVYPLAPGSAAQTNSMVTLGCLVKGYFPEPVTVTWNSGSLSSGVHTFPAVLQSDLYTLSSSVTVPSSTWPSQTVTCNVAHPASSTKVDKKIVPRDCGCKPCICTVPEVSSVFIFPPKPKDVLTITLTPKVTCVVVDISKDDPEVQFSWFVDDVEVHTAQTKPREEQFNSTFRSVSELPIMHQDWLNGKEFKCRVNSAAFPAPIEKTISKTKGRPKAPQVYTIPPPKEQMAKDKVSLTCMITDFFPEDITVEWQWNGQPAENYKNTQPIMDTDGSYFVYSKLNVQKSNWEAGNTFTCSVLHEGLHNHHTEKSLSHSPGK light: DDDDDDDDDDNIVLTQSPASLAVSLGQRATISCRASESVDSYGNSFMHWYQQKSGQPPKLLIYLASNLESGVPARFSGSGSRTDFTLTIDPVEADDAATYYCQQNNEDPLTFGAGTKLELKRADAAPTVSIFPPSSEQLTSGGASVVCFLNNFYPKDINVKWKIDGSERQNGVLNSWTDQDSKDSTYSMSSTLTLTKDEYERHNSYTCEATHKTSTSPIVKSFNRNEC | ~0.2 nM | 6.01 nM | 0.001 s⁻¹ | 166000 M⁻¹ s⁻¹ | –
mAb1 F6 (antibody, mouse IgG1, kappa, Mouse IgG1 fusion variant, PAR 2; also called HC-D10: WT-LC; mAb1-D10) heavy: HVQLQQSGPELVRPGASVKLSCKASGYIFITYWMNWVKQRPGQGLEWIGQIFPASGSTNYNEMFEGKATLTVDTSSSTAYMQLSSLTSEDSAVYYCARGDGNYALDAMDYWGQGTSVTVSSAKTTPPSVYPLAPGSAAQTNSMVTLGCLVKGYFPEPVTVTWNSGSLSSGVHTFPAVLQSDLYTLSSSVTVPSSTWPSQTVTCNVAHPASSTKVDKKIVPRDCGCKPCICTVPEVSSVFIFPPKPKDVLTITLTPKVTCVVVDISKDDPEVQFSWFVDDVEVHTAQTKPREEQFNSTFRSVSELPIMHQDWLNGKEFKCRVNSAAFPAPIEKTISKTKGRPKAPQVYTIPPPKEQMAKDKVSLTCMITDFFPEDITVEWQWNGQPAENYKNTQPIMDTDGSYFVYSKLNVQKSNWEAGNTFTCSVLHEGLHNHHTEKSLSHSPGKDDDDDDDDDD light: NIVLTQSPASLAVSLGQRATISCRASESVDSYGNSFMHWYQQKSGQPPKLLIYLASNLESGVPARFSGSGSRTDFTLTIDPVEADDAATYYCQQNNEDPLTFGAGTKLELKRADAAPTVSIFPPSSEQLTSGGASVVCFLNNFYPKDINVKWKIDGSERQNGVLNSWTDQDSKDSTYSMSSTLTLTKDEYERHNSYTCEATHKTSTSPIVKSFNRNEC | ~0.2 nM | 4.58 nM | 0.00084 s⁻¹ | 182000 M⁻¹ s⁻¹ | –

Further lines, results first:

IC50 (read off the curve); IL-11 release by A549 cells in response to TGF-β1 (TGF-β1 [1]) | Kd (TGF-β1 [2]) | koff (TGF-β1 [2]) | kon (TGF-β1 [2]) | IC50 (read off the curve); IL-11 release by A549 cells in response to TGF-β1 (TGF-β1 [3]) | Binder
– | 5.41 nM | 0.00093 s⁻¹ | 171000 M⁻¹ s⁻¹ | ~0.03 nM | mAb1 F12 (antibody, mouse IgG1, kappa, Mouse IgG1 fusion variant, PAR 4; also called D10-HC: D10-LC) heavy: DDDDDDDDDDHVQLQQSGPELVRPGASVKLSCKASGYIFITYWMNWVKQRPGQGLEWIGQIFPASGSTNYNEMFEGKATLTVDTSSSTAYMQLSSLTSEDSAVYYCARGDGNYALDAMDYWGQGTSVTVSSAKTTPPSVYPLAPGSAAQTNSMVTLGCLVKGYFPEPVTVTWNSGSLSSGVHTFPAVLQSDLYTLSSSVTVPSSTWPSQTVTCNVAHPASSTKVDKKIVPRDCGCKPCICTVPEVSSVFIFPPKPKDVLTITLTPKVTCVVVDISKDDPEVQFSWFVDDVEVHTAQTKPREEQFNSTFRSVSELPIMHQDWLNGKEFKCRVNSAAFPAPIEKTISKTKGRPKAPQVYTIPPPKEQMAKDKVSLTCMITDFFPEDITVEWQWNGQPAENYKNTQPIMDTDGSYFVYSKLNVQKSNWEAGNTFTCSVLHEGLHNHHTEKSLSHSPGK light: DDDDDDDDDDNIVLTQSPASLAVSLGQRATISCRASESVDSYGNSFMHWYQQKSGQPPKLLIYLASNLESGVPARFSGSGSRTDFTLTIDPVEADDAATYYCQQNNEDPLTFGAGTKLELKRADAAPTVSIFPPSSEQLTSGGASVVCFLNNFYPKDINVKWKIDGSERQNGVLNSWTDQDSKDSTYSMSSTLTLTKDEYERHNSYTCEATHKTSTSPIVKSFNRNEC
– | 6.88 nM | 0.0011 s⁻¹ | 159000 M⁻¹ s⁻¹ | ~0.02 nM | mAb1 F16 (antibody, mouse IgG1, kappa, Mouse IgG1 fusion variant, PAR 4; also called D10-HC-D10: WT-LC) heavy: DDDDDDDDDDHVQLQQSGPELVRPGASVKLSCKASGYIFITYWMNWVKQRPGQGLEWIGQIFPASGSTNYNEMFEGKATLTVDTSSSTAYMQLSSLTSEDSAVYYCARGDGNYALDAMDYWGQGTSVTVSSAKTTPPSVYPLAPGSAAQTNSMVTLGCLVKGYFPEPVTVTWNSGSLSSGVHTFPAVLQSDLYTLSSSVTVPSSTWPSQTVTCNVAHPASSTKVDKKIVPRDCGCKPCICTVPEVSSVFIFPPKPKDVLTITLTPKVTCVVVDISKDDPEVQFSWFVDDVEVHTAQTKPREEQFNSTFRSVSELPIMHQDWLNGKEFKCRVNSAAFPAPIEKTISKTKGRPKAPQVYTIPPPKEQMAKDKVSLTCMITDFFPEDITVEWQWNGQPAENYKNTQPIMDTDGSYFVYSKLNVQKSNWEAGNTFTCSVLHEGLHNHHTEKSLSHSPGKDDDDDDDDDD light: NIVLTQSPASLAVSLGQRATISCRASESVDSYGNSFMHWYQQKSGQPPKLLIYLASNLESGVPARFSGSGSRTDFTLTIDPVEADDAATYYCQQNNEDPLTFGAGTKLELKRADAAPTVSIFPPSSEQLTSGGASVVCFLNNFYPKDINVKWKIDGSERQNGVLNSWTDQDSKDSTYSMSSTLTLTKDEYERHNSYTCEATHKTSTSPIVKSFNRNEC
– | 5.62 nM | 0.00092 s⁻¹ | 164000 M⁻¹ s⁻¹ | ~0.07 nM | mAb1 F11 (antibody, mouse IgG1, kappa, Mouse IgG1 fusion variant, PAR 2; also called D10-HC: WT-LC) heavy: DDDDDDDDDDHVQLQQSGPELVRPGASVKLSCKASGYIFITYWMNWVKQRPGQGLEWIGQIFPASGSTNYNEMFEGKATLTVDTSSSTAYMQLSSLTSEDSAVYYCARGDGNYALDAMDYWGQGTSVTVSSAKTTPPSVYPLAPGSAAQTNSMVTLGCLVKGYFPEPVTVTWNSGSLSSGVHTFPAVLQSDLYTLSSSVTVPSSTWPSQTVTCNVAHPASSTKVDKKIVPRDCGCKPCICTVPEVSSVFIFPPKPKDVLTITLTPKVTCVVVDISKDDPEVQFSWFVDDVEVHTAQTKPREEQFNSTFRSVSELPIMHQDWLNGKEFKCRVNSAAFPAPIEKTISKTKGRPKAPQVYTIPPPKEQMAKDKVSLTCMITDFFPEDITVEWQWNGQPAENYKNTQPIMDTDGSYFVYSKLNVQKSNWEAGNTFTCSVLHEGLHNHHTEKSLSHSPGK light: NIVLTQSPASLAVSLGQRATISCRASESVDSYGNSFMHWYQQKSGQPPKLLIYLASNLESGVPARFSGSGSRTDFTLTIDPVEADDAATYYCQQNNEDPLTFGAGTKLELKRADAAPTVSIFPPSSEQLTSGGASVVCFLNNFYPKDINVKWKIDGSERQNGVLNSWTDQDSKDSTYSMSSTLTLTKDEYERHNSYTCEATHKTSTSPIVKSFNRNEC
